How the values were obtained:
HeLa Kyoto [1] = test: thermal stability score vs G1/S (z-score of summed log2 fold changes over temperatures); higher = more thermally stable than in G1/S
HeLa Kyoto [2] = test: solubility change mitosis vs G1/S (difference of NP-40 vs SDS log2 ratios) (log2 ratio difference); higher = more soluble in mitosis
HeLa Kyoto [3] = test: melting temperature (median over replicates), in situ; higher = more thermally stable
HeLa Kyoto [4] = test: solubility in G1/S (NP-40 vs SDS abundance) (log2 ratio); higher = more soluble; details: cell cycle stage: G1/S
[5] = cell cycle stage: early G1 (4.5 h after nocodazole release)
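Wherever melting temperature (median over replicates), in situ is given: HeLa Kyoto cells synchronized by double thymidine or nocodazole block, proteins quantified by TMT10plex mass spectrometry, three independent biological replicates.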
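Wherever solubility change mitosis vs G1/S (difference of NP-40 vs SDS log2 ratios) is given: synchronized HeLa Kyoto cells (double thymidine block for G1/S, nocodazole release for mitosis), protein amounts in NP-40 versus SDS lysates quantified by mass spectrometry, three biological replicates.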
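Wherever solubility in G1/S (NP-40 vs SDS abundance) is given: HeLa Kyoto cells arrested at G1/S by double thymidine block, proteins quantified by TMT10plex mass spectrometry in mild NP-40 versus SDS extracts, three biological replicates.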
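Wherever thermal stability score vs G1/S (z-score of summed log2 fold changes over temperatures) is given: synchronized HeLa Kyoto cells, proteins quantified by TMT10plex mass spectrometry, three biological replicates, mitosis taken 0.5 h after nocodazole release, G1/S directly after double thymidine block.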

Chain of AKAP8 (chain, as listed by the source): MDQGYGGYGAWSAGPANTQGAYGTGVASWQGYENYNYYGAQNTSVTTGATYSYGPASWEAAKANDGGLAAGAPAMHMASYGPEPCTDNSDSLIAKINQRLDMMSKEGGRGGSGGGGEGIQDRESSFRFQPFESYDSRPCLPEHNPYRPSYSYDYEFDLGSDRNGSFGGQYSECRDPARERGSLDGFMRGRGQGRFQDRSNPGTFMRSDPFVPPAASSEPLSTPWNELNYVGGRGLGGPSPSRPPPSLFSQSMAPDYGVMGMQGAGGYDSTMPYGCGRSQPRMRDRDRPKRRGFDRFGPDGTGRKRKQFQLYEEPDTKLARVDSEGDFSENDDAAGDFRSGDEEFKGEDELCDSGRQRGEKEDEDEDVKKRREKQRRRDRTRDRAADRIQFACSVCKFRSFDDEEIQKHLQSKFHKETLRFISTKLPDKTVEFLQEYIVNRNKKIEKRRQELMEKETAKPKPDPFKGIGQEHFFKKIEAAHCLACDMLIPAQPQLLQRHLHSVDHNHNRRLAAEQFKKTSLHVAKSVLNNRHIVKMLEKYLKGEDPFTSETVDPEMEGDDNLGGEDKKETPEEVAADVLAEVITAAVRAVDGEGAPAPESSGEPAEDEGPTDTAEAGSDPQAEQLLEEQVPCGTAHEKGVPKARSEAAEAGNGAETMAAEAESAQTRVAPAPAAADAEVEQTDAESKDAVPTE

| Substance | thermal stability score (HeLa Kyoto [1]; [5]) | thermal stability score (HeLa Kyoto [1]; cell cycle stage: mitosis) | solubility change mitosis (log2) (HeLa Kyoto [2]) | melting temperature (HeLa Kyoto [3]; cell cycle stage: G1/S) [°C] | melting temperature (HeLa Kyoto [3]; cell cycle stage: mitosis) [°C] | solubility in G1/S (log2) (HeLa Kyoto [4]) |
| --- | --- | --- | --- | --- | --- | --- |
| MNHLNVLAKALYDNVAESPDELSFRKGDIMTVLEQDTQGLDGWWLCSLHGRQGIVPGNRLKILVGMYDKKPAGPGPGPPATPAQPQPGLHAPAPPASQYTPMLPNTYQPQPDSVYLVPTPSKAQQGLYQVPGPSPQFQSPPAKQTSTFSKQTPHHPFPSPATDLYQVPPGPGGPAQDIYQVPPSAGMGHDIYQVPPSMDTRSWEGTKPPAKVVVPTRVGQGYVYEAAQPEQDEYDIPRHLLAPGPQDIYDVPPVRGLLPSQYGQEVYDTPPMAVKGPNGRDPLLEVYDVPPSVEKGLPPSNHHAVYDVPPSVSKDVPDGPLLREETYDVPPAFAKAKPFDPARTPLVLAAPPPDSPPAEDVYDVPPPAPDLYDVPPGLRRPGPGTLYDVPRERVLPPEVADGGVVDSGVYAVPPPAEREAPAEGKRLSASSTGSTRSSQSASSLEVAGPGREPLELEVAVEALARLQQGVSATVAHLLDLAGSAGATGSWRSPSEPQEPLVQDLQAAVAAVQSAVHELLEFARSAVGNAAHTSDRALHAKLSRQLQKMEDVHQTLVAHGQALDAGRGGSGATLEDLDRLVACSRAVPEDAKQLASFLHGNASLLFRRTKATAPGPEGGGTLHPNPTDKTSSIQSRPLPSPPKFTSQDSPDGQYENSEGGWMEDYDYVHLQGKEEFEKTQKELLEKGSITRQGKSQLELQQLKQFERLEQEVSRPIDHDLANWTPAQPLAPGRTGGLGPSDRQLLLFYLEQCEANLTTLTNAVDAFFTAVATNQPPKIFVAHSKFVILSAHKLVFIGDTLSRQAKAADVRSQVTHYSNLLCDLLRGIVATTKAAALQYPSPSAAQDMVERVKELGHSTQQFRRVLGQLAAA [BCAR1] | 0.46 | 2.67 | 0.0584 | 49.1 | 49.4 | 0.471 |
| MAAPMLRWGCRGRRWAFARVDGGSCHRRGAPTGSTSNQIRGESSVAQQPLHTAQKTRKGEHKWAAVVGLEIHAQISSNSKLFSGSQVRFSAPPNSLVSFFDASLPGTLPVLNRRCVEAAVMTGLALNCHINKKSLFDRKHYFYADLPAGYQITQQRLPIAVNGSLIYGVCAGKKQSQVIPKTVRIKQIQLEQDSGKSLHDNLRSQTLIDLNRAGVGLLEVVLEPDMSCGEEAATAVRELQLILQALGTSQANMAEGQLRVDANISVHHPGEPLGVRTEVKNLNSIRFLAKAIDYEIQRQINELENGGEILNETRSFHHKLGCTMSMRDKEGKQDYRFMPEPNLPPLVLYDATSLPAGADPQQVINIDQIRETLPELPSVTREKLVQQYGMLLEHSFTLLNEVGLLEFFQNVIKETRAEPKKVTSWVLNTFLGYLKQQNLAVSESPVTPSALAELLDLLDSRTISSSAAKQVFEELWKREGKTPGQIVSEKQLELMQDQGALEQLCHSVMEAHPQVVMDVKNRNPRAINKLIGLVRKATQSRADPVMIKEILEKKLSL [GATB] | -0.148 | 0.829 | -0.154 | 48.3 | 48.7 | 0.473 |
| MDAVNAFNQELFSLMDMKPPISRAKMILITKAAIKAIKLYKHVVQIVEKFIKKCKPEYKVPGLYVIDSIVRQSRHQFGTDKDVFGPRFSKNITATFQYLYLCPSEDKSKIVRVLNLWQKNGVFKIEIIQPLLDMAAGTSNAAPVAENVTNNEGSPPPPVKVSSEPPTQATPNSVPAVPQLPSSDAFAAVAQLFQTTQGQQLQQILQTFQQPPKPQSPALDNAVMAQVQAITAQLKTTPTQPSEQKAAFPPPEQKTAFDKKLLDRFDYDDEPEAVEESKKEDTTAVTTTAPAAAVPPAPTATVPAAAAPAAASPPPPQAPFGFPGDGMQQPAYTQHQNMDQFQPRMMGIQQDPMHHQVPLPPNGQMPGFGLLPTPPFPPMAQPVIPPTPPVQQPFQASFQAQNEPLTQKPHQQEMEVEQPCIQEVKRHMSDNRKSRSRSASRSPKRRRSRSGSRSRRSRHRRSRSRSRDRRRHSPRSRSQERRDREKERERRQKGLPQVKPETASVCSTTLWVGQLDKRTTQQDVASLLEEFGPIESINMIPPRGCAYIVMVHRQDAYRALQKLSRGNYKVNQKSIKIAWALNKGIKADYKQYWDVELGVTYIPWDKVKPEELESFCEGGMLDSDTLNPDWKGIPKKPENEVAQNGGAETSHTEPVSPIPKPLPVPVPPIPVPAPITVPPPQVPPHQPGPPVVGALQPPAFTPPLGIPPPGFGPGVPPPPPPPPFLRPGFNPMHLPPGFLPPGPPPPITPPVSIPPPHTPPISIPNSTIAGINEDTTKDLSIGNPIPTVVSGARGNAESGDSVKMYGSAVPPAAPTNLPTPPVTQPVSLLGTQGVAPGPVIGLQAPSTGLLGARPGLIPLQRPPGMPPPHLQRFPLMPPRPMPPHMMHRGPPPGPGGFAMPPPHGMKGPFPPHGPFVRPGGMPGLGGPGPGPGGPEDRDGRQQPPQQPQQQPQPQAPQQPQQQQQQQPPPSQQPPPTQQQPQQFRNDNRQQFNSGRDQERFGRRSFGNRVENDRERYGNRNDDRDNSNRDRREWGRRSPDRDRHRDLEERNRRSSGHRDRERDSRDRESRREKEEARGKEKPEVTDRAGGNKTVEPPISQVGNVDTASELEKGVSEAAVLKPSEELPAEATSSVEPEKDSGSAAEAPR [SCAF4] | 0.0642 | -0.063 | 0.211 | 48.5 | 51.4 | -0.347 |
| MDDTLFQLKFTAKQLEKLAKKAEKDSKAEQAKVKKALLQKNVECARVYAENAIRKKNEGVNWLRMASRVDAVASKVQTAVTMKGVTKNMAQVTKALDKALSTMDLQKVSSVMDRFEQQVQNLDVHTSVMEDSMSSATTLTTPQEQVDSLIMQIAEENGLEVLDQLSQLPEGASAVGESSVRSQEDQLSRRLAALRN [CHMP1A] | -0.982 | -1.61 | 0.313 | 54.4 | 53.9 | 0.509 |
| MAGPGWGPPRLDGFILTERLGSGTYATVYKAYAKKDTREVVAIKCVAKKSLNKASVENLLTEIEILKGIRHPHIVQLKDFQWDSDNIYLIMEFCAGGDLSRFIHTRRILPEKVARVFMQQLASALQFLHERNISHLDLKPQNILLSSLEKPHLKLADFGFAQHMSPWDEKHVLRGSPLYMAPEMVCQRQYDARVDLWSMGVILYEALFGQPPFASRSFSELEEKIRSNRVIELPLRPLLSRDCRDLLQRLLERDPSRRISFQDFFAHPWVDLEHMPSGESLGRATALVVQAVKKDQEGDSAAALSLYCKALDFFVPALHYEVDAQRKEAIKAKVGQYVSRAEELKAIVSSSNQALLRQGTSARDLLREMARDKPRLLAALEVASAAMAKEEAAGGEQDALDLYQHSLGELLLLLAAEPPGRRRELLHTEVQNLMARAEYLKEQVKMRESRWEADTLDKEGLSESVRSSCTLQ [ULK3] | -0.375 | -0.212 | -0.125 | 49.9 | 49.6 | 0.0298 |
| MAASKPVEAAVVAAAVPSSGSGVGGGGTAGPGTGGLPRWQLALAVGAPLLLGAGAIYLWSRQQRRREARGRGDASGLKRNSERKTPEGRASPAPGSGHPEGPGAHLDMNSLDRAQAAKNKGNKYFKAGKYEQAIQCYTEAISLCPTEKNVDLSTFYQNRAAAFEQLQKWKEVAQDCTKAVELNPKYVKALFRRAKAHEKLDNKKECLEDVTAVCILEGFQNQQSMLLADKVLKLLGKEKAKEKYKNREPLMPSPQFIKSYFSSFTDDIISQPMLKGEKSDEDKDKEGEALEVKENSGYLKAKQYMEEENYDKIISECSKEIDAEGKYMAEALLLRATFYLLIGNANAAKPDLDKVISLKEANVKLRANALIKRGSMYMQQQQPLLSTQDFNMAADIDPQNADVYHHRGQLKILLDQVEEAVADFDECIRLRPESALAQAQKCFALYRQAYTGNNSSQIQAAMKGFEEVIKKFPRCAEGYALYAQALTDQQQFGKADEMYDKCIDLEPDNATTYVHKGLLQLQWKQDLDRGLELISKAIEIDNKCDFAYETMGTIEVQRGNMEKAIDMFNKAINLAKSEMEMAHLYSLCDAAHAQTEVAKKYGLKPPTL [TOMM70A] | 2.06 | 2.92 | 0.0273 | 50.4 | 50.1 | 0.504 |
| MAGRLLGKALAAVSLSLALASVTIRSSRCRGIQAFRNSFSSSWFHLNTNVMSGSNGSKENSHNKARTSPYPGSKVERSQVPNEKVGWLVEWQDYKPVEYTAVSVLAGPRWADPQISESNFSPKFNEKDGHVERKSKNGLYEIENGRPRNPAGRTGLVGRGLLGRWGPNHAADPIITRWKRDSSGNKIMHPVSGKHILQFVAIKRKDCGEWAIPGGMVDPGEKISATLKREFGEEALNSLQKTSAEKREIEEKLHKLFSQDHLVIYKGYVDDPRNTDNAWMETEAVNYHDETGEIMDNLMLEAGDDAGKVKWVDINDKLKLYASHSQFIKLVAEKRDAHWSEDSEADCHAL [NUDT9] | -0.398 | -0.161 | 0.00145 | 50.3 | 50.5 | 0.41 |
| MDKNELVQKAKLAEQAERYDDMAACMKSVTEQGAELSNEERNLLSVAYKNVVGARRSSWRVVSSIEQKTEGAEKKQQMAREYREKIETELRDICNDVLSLLEKFLIPNASQAESKVFYLKMKGDYYRYLAEVAAGDDKKGIVDQSQQAYQEAFEISKKEMQPTHPIRLGLALNFSVFYYEILNSPEKACSLAKTAFDEAIAELDTLSEESYKDSTLIMQLLRDNLTLWTSDTQGDEAEAGEGGEN [YWHAZ] | -3.76 | -3.47 | 0.346 | 54.9 | 54.8 | 0.359 |
| MTHSLVCPETVSRVSSVLNRNTRQFGKKHLFDQDEETCWNSDQGPSQWVTLEFPQLIRVSQLQIQFQGGFSSRRGCLEGSQGTQALHKIVDFYPEDNNSLQTFPIPAAEVDRLKVTFEDATDFFGRVVIYHLRVLGEKV [NR2C2AP] | 0.143 | -0.215 | -0.238 | 53.3 | 52.8 | 0.195 |
| MPDENIFLFVPNLIGYARIVFAIISFYFMPCCPLTASSFYLLSGLLDAFDGHAARALNQGTRFGAMLDMLTDRCSTMCLLVNLALLYPGATLFFQISMSLDVASHWLHLHSSVVRGSESHKMIDLSGNPVLRIYYTSRPALFTLCAGNELFYCLLYLFHFSEGPLVGSVGLFRMGLWVTAPIALLKSLISVIHLITAARNMAALDAADRAKKK [CDIPT] | -2.08 | -1.66 | -0.0289 | 54.7 | 59.4 | -0.0899 |
| MDEDGLPLMGSGIDLTKVPAIQQKRTVAFLNQFVVHTVQFLNRFSTVCEEKLADLSLRIQQIETTLNILDAKLSSIPGLDDVTVEVSPLNVTSVTNGAHPEATSEQPQQNSTQDSGLQESEVSAENILTVAKDPRYARYLKMVQVGVPVMAIRNKMISEGLDPDLLERPDAPVPDGESEKTVEESSDSESSFSD [CCDC53] | 0.159 | -0.73 | -0.0689 | 52.7 | – | -0.349 |
| AKAP8 | 1.87 | 2.22 | 0.113 | 49 | 49.8 | -0.14 |
| MFAKAFRVKSNTAIKGSDRRKLRADVTTAFPTLGTDQVSELVPGKEELNIVKLYAHKGDAVTVYVSGGNPILFELEKNLYPTVYTLWSYPDLLPTFTTWPLVLEKLVGGADLMLPGLVMPPAGLPQVQKGDLCAISLVGNRAPVAIGVAAMSTAEMLTSGLKGRGFSVLHTYQDHLWRSGNKSSPPSIAPLALDSADLSEEKGSVQMDSTLQGDMRHMTLEGEEENGEVHQAREDKSLSEAPEDTSTRGLNQDSTDSKTLQEQMDELLQQCFLHALKCRVKKADLPLLTSTFLGSHMFSCCPEGRQLDIKKSSYKKLSKFLQQMQQEQIIQVKELSKGVESIVAVDWKHPRITSFVIPEPSPTSQTIQEGSREQPYHPPDIKPLYCVPASMTLLFQESGHKKGSFLEGSEVRTIVINYAKKNDLVDADNKNLVRLDPILCDCILEKNEQHTVMKLPWDSLLTRCLEKLQPAYQVTLPGQEPIVKKGRICPIDITLAQRASNKKVTVVRNLEAYGLDPYSVAAILQQRCQASTTVNPAPGAKDSLQVQIQGNQVHHLGWLLLEEYQLPRKHIQGLEKALKPGKKK [EIF2D] | 0.861 | 1.5 | -0.0853 | 48.3 | 48.3 | 0.234 |

Source: the supplement of paper PMC5998384
